Measured values reported in the supplement of paper PMC9170038.

Test system: MS2 coat protein
Experiment: apparent KD of MS2 coat protein; designed switch direction (-1 OFF switch, 1 ON switch): 1; higher = weaker reporter binding
Method in brief: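 For each design, the apparent KD is the median over clusters of curves fitted to normalised cluster fluorescence. Clusters held RNA switches with common flanks, transcribed on Illumina chips by stalled E. coli RNA polymerase. These were titrated with SNAP-549-labelled MS2 coat protein, doubling from 0.7 or 1.5 nM to 3 µM, without input, with 200 uM small-molecule ligand, or with an oligonucleotide input.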

[1] = Eterna round: R95, input ligand: FMN 200 uM
[2] = Eterna round: R95, input ligand: microRNA oligo, concentration not stated
[3] = Eterna round: R95, input ligand: none
[4] = input ligand: microRNA oligo, concentration not stated

| Sequence | apparent KD of MS2 coat protein [1] | apparent KD of MS2 coat protein [2] | apparent KD of MS2 coat protein [3] | apparent KD of MS2 coat protein (input ligand: FMN 200 uM) | apparent KD of MS2 coat protein [4] | apparent KD of MS2 coat protein (input ligand: none) |
| --- | --- | --- | --- | --- | --- | --- |
| CAAGCUUGGGUCGUCCCGCUCGUCUUCAAACAUGAGGAUCACCCAUGUAUACUCUUCACAUCAAUUCUAUCUCUUAA [Ralasoerin] (puzzle: Sensor for hsa-mir-208a) | 255 nM | 22.8 nM | 289 nM | – | – | – |
| GCCGCGUUUCGCGCCUACAUGAGGAUCACCCAUGUUUGUGGGCAGGAUAUCGUCCGCUCUGCGGGCGAGAAGGGCUGUUGUGGG [salish99_SSNG3_R04_024] (Eterna round: R96, puzzle: Same State NG 3) | – | – | – | 231 nM | 159 nM | 215 nM |
| CCGAUCUACCGAAAGGUAGAUGGGCUUGUACAUGAGGAUCACCCAUGUCAGUACAAGCUUUUUGCUCCUCUUAUCCU [salish99-hsa-208a-40] (Eterna round: R96, puzzle: Sensor for hsa-mir-208a) | – | – | – | 41.8 nM | 14 nM | 42.7 nM |
| GGUAAGAAUUAAGGAUAUCGAGUACAUAUGUUUAACAUGAGGAUCACCCAUGUGGGUUGCGGUAUCGAGAAGGUAAAUUAUAAG [Mat - same State NG 2 - JL mod - D63] (Eterna round: R96, puzzle: Same State NG 2) | – | – | – | 43.3 nM | 29.7 nM | 50.8 nM |
| GCUCGAAUCAAAACCAACAUGAGGAUCACCCAUGUAUGUUGGUAGGAUAUCGUUUGCUUUGCAAACGAGAAGGACCAAACGAGC [SameState NG3 #2] (Eterna round: R96, puzzle: Same State NG 3) | – | – | – | 26.8 nM | 67 nM | 94.2 nM |
| GGAGCCAAGGCAGGAUAUUCAUAUUAAUUACAUGAGGAUCACCCAUGUUAGGCCAGAAGGCCUUGGGAGAAGGGCCAUGGCUCG [Xeonanis - 13 mod19] (Eterna round: R96, puzzle: Same State NG 2) | – | – | – | 22.9 nM | 47.2 nM | 60.6 nM |
| GGUCCAUCAUGAGGAUAUGGCACCUUAUUGGUGCCAGAAGGCAUGUCUAUAGACAUGAGGAUCACCCAUGUUAUAAAUUGGACC [Eli NG1ss - 92] (Eterna round: R96, puzzle: Same State NG 1) | – | – | – | 20 nM | 98.6 nM | 111 nM |
| ACAUGAGAGAAAGGAUAUGUUGUACCUACAUGUGACAUGAGGAUCACCCAUGUGGUAAGUAUGAGACAGAAGGUUCAGAUAUGU [Equivalence 32 - Jieux - Same State NG 2] (Eterna round: R96, puzzle: Same State NG 2) | – | – | – | 20.4 nM | 51.1 nM | 65.7 nM |
| UGGAUCUAGGCUUGCCUGGGUCCUUCAAGACAUGAGGAUCACCCAUGUGUUUUUUUUUUGCUUUUUGUUUGUCUUGA [JL A Humble Attempt mod 2] (puzzle: Sensor for hsa-mir-208a) | 50.8 nM | 15 nM | 23.1 nM | – | – | – |
| GGUAGGUUACUACCAAACAUGAGGAUCACCCAUGUAAAUGGGAAGGAUAUGGUACCUAUUUGGUACCAGAAGGUCCAAAUAAUU [Mat - Same State NG 3 - JL Mod - D95] (Eterna round: R96, puzzle: Same State NG 3) | – | – | – | 180 nM | 327 nM | 1410 nM |
| AUAGUUUCCGAAGGAUAUGAUGAGGAUCACCCAUCAGAAGGUUGGCUAUUGGGCUGACAUGAGGAUCACCCAUGUUCUGGAGUU (Eterna round: R96, puzzle: Same State NG 1) | – | – | – | 39.8 nM | 39.5 nM | 64.5 nM |
| AUACAUGAGGAUCACCCAUGUAAUUAAUUAAUUAAUAAGAUCAAGGAUAUCAGCUCGAUUAGAGCUGAGAAGGUGAUCACAUGU [SSNG3/21-D2] (Eterna round: R96, puzzle: Same State NG 3) | – | – | – | – | 272 nM | – |
